According to patent US20200308261 (published 2020):

Experiments:
human Aβ 11pE-40 = molecular target: T1, human Aβ 11pE-40 (human); assay: ELISA sandwich, up to 10 ng/mL
T1 chain: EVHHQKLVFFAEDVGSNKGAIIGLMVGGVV

human Aβ 1-42 = human Aβ 1-42 (human); assay: ELISA sandwich, up to 10 ng/mL
human Aβ 11pE-42 = molecular target: T2, human Aβ 11pE-42 (human); assay: ELISA sandwich, up to 10 ng/mL
T2 chain: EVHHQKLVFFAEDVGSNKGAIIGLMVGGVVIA

rodent Aβ 3pE-40 = molecular target: T3, rodent Aβ 3pE-40 (rodent); assay: ELISA sandwich, up to 10 ng/mL
T3 chain: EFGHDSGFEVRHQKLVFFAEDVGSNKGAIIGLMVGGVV

human Aβ 1-40 [1] = molecular target: human Aβ 1-40 (human); assay: ELISA sandwich, up to 10 ng/mL
human Aβ 1-40 [2] = molecular target: human Aβ 1-40 (human); assay: SPR up to 50 nM

Measured: binding result

B1: BAMB31 (antibody, V domains shown)
VH: EIQLQQSGPELVKPGTSVKVSCKASGHVFTSYDMYWVKQSHGKSLEWIGYIDSDNGDTSYNQKFKGKATLTVDKSSSTAYMHLNSLTSEDSAVYYCAYYRYAMDYWGQGTSVTVSS
VL: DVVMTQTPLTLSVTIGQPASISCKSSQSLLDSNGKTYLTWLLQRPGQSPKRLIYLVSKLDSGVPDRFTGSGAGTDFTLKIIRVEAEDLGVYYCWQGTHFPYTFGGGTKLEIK
not listed: human Aβ 1-40 [2]
no binding: all other assays above

B2: BAMB31_2a (mIgG2a) (antibody, V domains shown)
VH: EIQLQQSGPELVKPGTSVKVSCKASGHVFTSYDMYWVKQSHGKSLEWIGYIDSDNGDTSYNQKFKGKATLTVDKSSSTAYMHLNSLTSEDSAVYYCAYYRYAMDYWGQGTSVTVSS
VL: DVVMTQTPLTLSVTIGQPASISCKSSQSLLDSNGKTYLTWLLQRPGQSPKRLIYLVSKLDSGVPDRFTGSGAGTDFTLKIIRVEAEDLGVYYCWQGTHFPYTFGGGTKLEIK
no binding: human Aβ 1-40 [2]
